From US9200265B2, “Anti-cocaine compositions and treatment” (priority 2006, dated 2015)
Read-outs that look alike come from different tables or passages of the source.

Columns and labels:
[1] = Half-life of CocE in rat plasma; format: in vitro ADME
Method: CocE's protective effects were eliminated when rats were treated 100 min prior to cocaine. This time-dependent effect is most likely due to the thermal deactivation of the enzyme in vivo.

[2] = tested on: WIN 35065-2 induced toxicity; test: WIN 35065-2 induced lethality in rats; settings: 1.0 mg CocE i.v. one minute after 560 mg/kg WIN-35065-2 i.p.
[3] = Thermal stability: preincubation at 37° C., activity measured at RT (25° C.); format: physicochemical; settings: wild type
Method: Thermally stable mutant CocE polypeptides were identified by determining 1/2 of the mutant CocE polypeptides. Briefly, enzymes were preincubated at 37° C. for varying times. Activity measurements were determined at RT (25° C.). Mutant enzymes with 1/2 of greater than 12 minutes (the 1/2 of wild type CocE) were considered thermally stable (See, e.g., FIG. 27 and Table 7).

[4] = Time-dependent inactivation of CocE in vitro (incubation at temperature, then activity)
Method: For time-dependent inactivation of CocE in vitro, purified CocE enzyme (at 250 ng/ml) was incubated in assay buffer in the absence of cocaine at 37° C. for various times. Following incubation at 37° C. the samples were placed on ice. To assess the effect of temperature on CocE activity, samples were incubated with (−) cocaine at various concentrations as indicated at a final enzyme concentration of 125 ng/ml. The rate of decay of (−)-cocaine at A240 was measured on a multiplate reader.

[5] = Melting temperature by circular dichroism (near-UV); format: physicochemical
Method: Plasmids containing the mutations were transformed into E. coli BL21 cells and IPTG-induced enzyme was purified on Ni-Agarose. Expressed proteins were then tested for enzymatic activity and for thermostability at 37° C. Enzyme activity was measured using the spectrophotometric assay as described in Example 1. Thermostability was also tested via the spectrophotometric assay by pre-incubation of both wild-type and mutants at 37° C. for various times. Additionally, the nature of the thermo-instability of both the wild-type and T172R mutant was analyzed by polyacrylamide gel electrophoresis under denaturing and non-denaturing conditions. Briefly, mutant and wild-type enzyme at 0.1 mg/ml were incubated at 37° C. for various time-points, cooled to 4° C., mixed with SDS-loading dye containing-mercaptoethanol and run on 10% SDS-PAGE gels (denaturing conditions) or run on native 10% polyacrylamide gels (non-denaturing conditions) at 4° C. Gels were fixed with 10% methanol, 7% acetic acid for 30 minutes, and then stained with Sypro-Ruby protein gel stain (Molecular Probes, Invitrogen) for 3 hours. Protein staining was visualized under UV-light using an AlphaImager™ 3400 (Alpha Innotech). Finally, the exact melting temperature of both the wild-type and T172R mutant were determined by circular dichroism using a JASCO-810 spectropolarimeter driven by a JASCO V500/FP-750 analysis program for Windows. The CD spectra were measured in millidegrees and normalized against PBS buffer.

[6] = cited from earlier work
[7] = Decay of CocE activity in plasma at 37° C. or after intravenous administration into a mouse; format: in vitro ADME; settings: incubation in plasma at 37° C., or after intravenous administration into a mouse

B1: CocE: wild-type cocaine esterase of Rhodococcus sp. MB 1, SEQ ID NO: 1, Accession No. AF173165 (protein)
chain: MVDGNYSVASNVMVPMRDGVRLAVDLYRPDADGPVPVLLVRNPYDKFDVFAWSTQSTNWLEFVRDGYAVVIQDTRGLFASEGEFVPHVDDEADAEDTLSWILEQAWCDGNVGMFGVSYLGVTQWQAAVSGVGGLKAIAPSMASADLYRAPWYGPGGALSVEALLGWSALIGTGLITSRSDARPEDAADFVQLAAILNDVAGAASVTPLAEQPLLGRLIPWVIDQVVDHPDNDESWQSISLFERLGGLATPALITAGWYDGFVGESLRTFVAVKDNADARLVVGPWSHSNLTGRNADRKFGIAATYPIQEATTMHKAFFDRHLRGETDALAGVPKVRLFVMGIDEWRDETDWPLPDTAYTPFYLGGSGAANTSTGGGTLSTSISGTESADTYLYDPADPVPSLGGTLLFHNGDNGPADQRPIHDRDDVLCYSTEVLTDPVEVTGTVSARLFVSSSAVDTDFTAKLVDVFPDGRAIALCDGIVRMRYRETLVNPTLIEAGEIYEVAIDMLATSNVFLPGHRIMVQVSSSNFPKYDRNSNTGGVIAREQLEEMCTAVNRIHRGPEHPSHIVLPIIKR
modifications: Rhodococcus sp. MB1
half-life [1]: about 10 minutes
lethal effect of WIN 35065-2 under treatment with CocE [2]: not overcome
1/2 (t1/2) at 37° C. [3]: 12 min
t1/2 of CocE ([4]; at 4° C.): greater than 6 months
t1/2 of CocE ([4]; at 37° C.): approximately 15 minutes
detectable denaturation beginning ([5]; near-UV CD): approximately 30 °C
melting temperature ([5]; near-UV CD (260-320 nm), curve-fitting): 36.15 °C
Kcat ([6]; against (-) cocaine): 7.8 s⁻¹
Km ([6]; against (-) cocaine): 0.64 µM
Km ([6]; purified enzyme, cocaine): 0.64 µM
kcal (Michaelis-Menten kinetics) ([6]; purified enzyme, cocaine): 7.2 s⁻¹
decay of CocE activity [7]: > 50%
